Reference: the supplement of paper PMC7125110
± gives the standard error. For some assays here: Variants at the floor of the assay were thinned out.

B1: glmS ribozyme (parent)
chain: AUAAAAGCGCCAGAACUACAGAAAUGUAGUUGACGAGGAGGAGGUUUAUCGAAUUUUCGGCGGAUGCCUCCAAA

What was measured:
Settings in all cases: with glucosamine-6-phosphate
glucosamine-6-phosphate [1] = variants of: B1; experiment: kcat; higher = faster cleavage; RNA array
Method in brief: (§1)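 Barcoded ribozyme variants, transcribed in situ by E. coli RNA polymerase on sequenced MiSeq chips, were followed via a hybridised Cy3 probe at 37 °C. Glucosamine-6-phosphate ranged from 40 μM to 10 mM in HEPES/KCl/Mg(OAc)2 buffer. kobs came from decay fits to per-tile medians, and kcat and KM from weighted Michaelis–Menten fits.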

glucosamine-6-phosphate [2] = variants of: B1; experiment: KM; higher = weaker cofactor use; RNA array
Method in brief: as §1

glucosamine-6-phosphate [3] = variants of: B1; experiment: self-cleavage kobs at 640 uM GlcN6P; higher = faster cleavage; RNA array
Method in brief: as §1

glucosamine-6-phosphate [4] = variants of: B1; experiment: self-cleavage kobs at 2500 uM GlcN6P; higher = faster cleavage; RNA array
Method in brief: as §1

glucosamine-6-phosphate [5] = variants of: B1; experiment: self-cleavage kobs at 10000 uM GlcN6P; higher = faster cleavage; RNA array
Method in brief: as §1

glucosamine-6-phosphate [6] = variants of: B1; experiment: self-cleavage kobs at 40 uM GlcN6P; higher = faster cleavage; RNA array
Method in brief: as §1

glucosamine-6-phosphate [7] = variants of: B1; experiment: self-cleavage kobs at 160 uM GlcN6P; higher = faster cleavage; RNA array
Method in brief: as §1

Row | Variant | kcat (glucosamine-6-phosphate [1]) [s⁻¹] | KM (glucosamine-6-phosphate [2]) [µM] | self-cleavage kobs at 640 uM GlcN6P (glucosamine-6-phosphate [3]) [s⁻¹] | self-cleavage kobs at 2500 uM GlcN6P (glucosamine-6-phosphate [4]) [s⁻¹] | self-cleavage kobs at 10000 uM GlcN6P (glucosamine-6-phosphate [5]) [s⁻¹] | self-cleavage kobs at 40 uM GlcN6P (glucosamine-6-phosphate [6]) [s⁻¹] | self-cleavage kobs at 160 uM GlcN6P (glucosamine-6-phosphate [7]) [s⁻¹]
1 | G29A A52G | 0.000368 ± 9e-05 | 3290 ± 1300 | 5.31e-05 ± 8.1e-06 | 0.000207 ± 2.8e-05 | 0.000255 ± 3.8e-05 | – | –
2 | G40A U55C A64G | 4.82e-05 ± 7.4e-06 | 7420 ± 2400 | – | – | – | – | –
3 | U54G U65A | 0.00375 ± 0.00091 | 2250 ± 730 | 0.0008 ± 0.00014 | 0.00199 ± 0.00034 | 0.00315 ± 0.00065 | 9.07e-05 ± 1.5e-05 | 0.000213 ± 3.8e-05
4 | C16U C34A C50G U56C | 1.31e-05 ± 1.9e-06 | – | – | – | – | – | –
5 | C16A A36C C71A | < 1e-05 | – | – | – | < 1e-05 | – | –
6 | U56G A64U | 9.52e-05 ± 2.5e-05 | – | – | 3.01e-05 ± 1.5e-05 | 6.57e-05 ± 1.9e-05 | – | < 1e-05
7 | U46C C70A | 0.000216 ± 5.4e-05 | – | 0.000105 ± 1.7e-05 | 0.000151 ± 2.5e-05 | 0.000347 ± 8.7e-05 | – | 5.11e-05 ± 2.3e-05
8 | C16U C70G | 0.000316 ± 9.7e-05 | – | 0.000186 ± 1.6e-05 | 0.000619 ± 0.00016 | 0.000497 ± 0.00011 | 4.19e-05 ± 6.7e-06 | 9.18e-05 ± 8.2e-06
9 | C34U G51A | 5.64e-05 ± 4.4e-06 | 2710 ± 750 | – | – | 4.45e-05 ± 8.4e-06 | – | –
10 | U46G C68U | 0.00128 ± 0.00018 | 1170 ± 300 | 0.000378 ± 5.2e-05 | 0.00102 ± 0.00018 | 0.00116 ± 0.00011 | 5.92e-05 ± 9.5e-06 | 0.000148 ± 2.3e-05
11 | A15U G63A | < 1e-05 | – | – | – | < 1e-05 | – | –
12 | U30A U47A | 0.00539 ± 0.0011 | 3150 ± 930 | 0.000968 ± 0.00012 | 0.0025 ± 0.00032 | 0.00373 ± 0.00086 | – | 0.000206 ± 5.9e-05
13 | G59A C71A | < 1e-05 | – | – | – | – | < 1e-05 | –
14 | U30C C50U | < 1e-05 | – | – | – | – | – | –
15 | U47A C71A | 0.00195 ± 0.00046 | 1020 ± 320 | 0.00117 ± 0.00028 | 0.00138 ± 0.00038 | 0.00153 ± 0.00055 | 6.97e-05 ± 1.4e-05 | 0.000253 ± 6.8e-05
16 | G26A | 0.0116 ± 0.0035 | – | 0.0112 ± 0.0022 | 0.00852 ± 0.0022 | – | 0.00121 ± 0.00035 | 0.00345 ± 0.0008
17 | G26U | 0.0318 ± 0.01 | 1200 ± 480 | 0.00931 ± 0.0012 | 0.0179 ± 0.0032 | 0.0456 ± 0.0065 | 0.00112 ± 7.2e-05 | 0.00324 ± 0.00048
18 | A15G G51A | < 1e-05 | – | < 1e-05 | – | – | – | < 1e-05
19 | U31G U54C | 0.014 ± 0.0061 | – | 0.00289 ± 0.00053 | 0.00559 ± 0.00098 | 0.0136 ± 0.0038 | 0.000233 ± 4e-05 | 0.000516 ± 0.00013

Row | Variant | kcat (glucosamine-6-phosphate [1]) [s⁻¹] | KM (glucosamine-6-phosphate [2]) [µM] | self-cleavage kobs at 640 uM GlcN6P (glucosamine-6-phosphate [3]) [s⁻¹] | self-cleavage kobs at 2500 uM GlcN6P (glucosamine-6-phosphate [4]) [s⁻¹] | self-cleavage kobs at 10000 uM GlcN6P (glucosamine-6-phosphate [5]) [s⁻¹] | self-cleavage kobs at 40 uM GlcN6P (glucosamine-6-phosphate [6]) [s⁻¹] | self-cleavage kobs at 160 uM GlcN6P (glucosamine-6-phosphate [7]) [s⁻¹]
20 | G37A C71G | 0.000188 ± 2.3e-05 | 2370 ± 690 | 4.08e-05 ± 7.8e-06 | 9.24e-05 ± 9.5e-06 | 0.000155 ± 1.4e-05 | – | 3.34e-05 ± 1.4e-05
21 | C16U G32C | 0.000168 ± 3e-05 | 3960 ± 1900 | – | 7.33e-05 ± 1.4e-05 | 0.000119 ± 1.2e-05 | – | –
22 | A39C A53U | 0.00502 ± 0.0011 | 2730 ± 760 | 0.000952 ± 0.00013 | 0.00344 ± 0.00044 | 0.00367 ± 0.00039 | 7.74e-05 ± 7.6e-06 | 0.000227 ± 3.4e-05
23 | G40U A42G | 0.00742 ± 0.00078 | 1330 ± 220 | 0.00267 ± 0.00058 | 0.00567 ± 0.001 | 0.00603 ± 0.001 | 0.000214 ± 4e-05 | 0.00072 ± 0.00018
24 | A36U G66A | < 1e-05 | – | – | – | – | – | < 1e-05
25 | A14C U57A | 0.00019 ± 1.7e-05 | – | – | 3.61e-05 ± 1.6e-05 | 9.25e-05 ± 2.2e-05 | – | –
26 | C16U G37C | 1.3e-05 ± 3e-06 | – | – | – | – | < 1e-05 | –
27 | U31A C67A C68U | 6.87e-05 ± 1.5e-05 | – | 0.000122 ± 3.5e-05 | 7.63e-05 ± 1.4e-05 | 5.53e-05 ± 1.3e-05 | – | –
28 | U56G C68G | 6.61e-05 ± 1e-05 | – | – | 2.78e-05 ± 1.4e-05 | 5.46e-05 ± 8.1e-06 | – | –
29 | A15C G66U | 0.000265 ± 3.3e-05 | 3080 ± 740 | 4.02e-05 ± 7.2e-06 | 0.000134 ± 1.5e-05 | 0.000194 ± 2.2e-05 | – | –
30 | G7C C50G | 1.12e-05 ± 2.4e-06 | – | – | – | – | – | –
31 | G51A G66C | < 1e-05 | 510 ± 240 | – | – | – | – | –
32 | C50G U55G C67G | 2.81e-05 ± 6.9e-06 | – | – | – | – | – | –
33 | G59A C70A | 1.52e-05 ± 3.7e-06 | – | – | – | – | – | –
34 | C50U U69A | 2.06e-05 ± 3.7e-06 | – | – | – | – | – | –
35 | U31C G40A | 0.00072 ± 0.00018 | 1300 ± 550 | 0.000297 ± 4.4e-05 | 0.000647 ± 0.00012 | 0.000532 ± 0.0001 | – | 6.18e-05 ± 1.5e-05
36 | G13C A42C | < 1e-05 | – | – | – | < 1e-05 | < 1e-05 | –
37 | G66U | 0.00275 ± 0.00056 | 2210 ± 580 | 0.00057 ± 1.2e-05 | 0.00179 ± 6.8e-05 | 0.00225 ± 6.3e-05 | 5.79e-05 ± 1.2e-06 | 0.000159 ± 5.1e-06
